Data set [1] concerns the molecule itself. The data set can be described thus: cryo-EM structure; Cas12f D510A with sgRNA (222 nt) and 60-bp target dsDNA (TTTA PAM), ratio 1:1.2:1.3, 37°C, purified by SEC in 25 mM Tris-HCl pH 7.6, 150 mM NaCl, 2 mM DTT, 1 mM MgCl2; 3.1 Å.
Data set [2] deals with the molecule itself. The data set can be described thus: cryo-EM structure; Cas12f with sgRNA, ratio 1:1.2, 37°C for 30 min in 25 mM Tris-HCl pH 7.6, 150 mM NaCl, 2 mM DTT, 1 mM MgCl2; no target DNA; 3.9 Å.
In data set [3] the target is T1, Un1Cas12f1 D510A (Cas14a1; catalytically inactive) (UniProt A0A482D308 1-529, D510A).
T1 sequence: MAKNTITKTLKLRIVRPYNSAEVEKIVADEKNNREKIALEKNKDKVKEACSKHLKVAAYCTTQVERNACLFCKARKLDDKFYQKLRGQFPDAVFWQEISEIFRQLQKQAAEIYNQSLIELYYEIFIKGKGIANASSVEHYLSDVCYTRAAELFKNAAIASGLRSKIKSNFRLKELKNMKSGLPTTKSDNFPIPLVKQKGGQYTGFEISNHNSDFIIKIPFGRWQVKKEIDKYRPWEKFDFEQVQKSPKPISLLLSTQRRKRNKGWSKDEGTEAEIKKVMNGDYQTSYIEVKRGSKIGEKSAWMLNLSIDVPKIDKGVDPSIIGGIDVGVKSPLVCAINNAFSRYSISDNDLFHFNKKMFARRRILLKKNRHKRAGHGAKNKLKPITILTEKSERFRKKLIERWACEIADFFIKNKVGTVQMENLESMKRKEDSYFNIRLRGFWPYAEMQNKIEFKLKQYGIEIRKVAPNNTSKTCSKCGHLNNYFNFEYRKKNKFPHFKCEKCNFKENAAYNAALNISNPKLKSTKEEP
The data set can be described thus: cryo-EM (3.1 A); SEC; 1 mM Mg2+; Complex assembly in 25 mM Tris-HCl pH 7.6, 150 mM NaCl, 2 mM DTT, 1 mM MgCl2, 37 C 30 min; SEC in same buffer. As to conditions: protein: recombinant; tags: N-terminal 10xHis-MBP removed by TEV; chain copies: 2; sgRNA; target and non-target DNA strands blunt 60 bp; guide:target heteroduplex 19-20 bp.

Another data set deals with T2, Un1Cas12f1 (Cas14a1) (UniProt A0A482D308 1-529).
T2 sequence: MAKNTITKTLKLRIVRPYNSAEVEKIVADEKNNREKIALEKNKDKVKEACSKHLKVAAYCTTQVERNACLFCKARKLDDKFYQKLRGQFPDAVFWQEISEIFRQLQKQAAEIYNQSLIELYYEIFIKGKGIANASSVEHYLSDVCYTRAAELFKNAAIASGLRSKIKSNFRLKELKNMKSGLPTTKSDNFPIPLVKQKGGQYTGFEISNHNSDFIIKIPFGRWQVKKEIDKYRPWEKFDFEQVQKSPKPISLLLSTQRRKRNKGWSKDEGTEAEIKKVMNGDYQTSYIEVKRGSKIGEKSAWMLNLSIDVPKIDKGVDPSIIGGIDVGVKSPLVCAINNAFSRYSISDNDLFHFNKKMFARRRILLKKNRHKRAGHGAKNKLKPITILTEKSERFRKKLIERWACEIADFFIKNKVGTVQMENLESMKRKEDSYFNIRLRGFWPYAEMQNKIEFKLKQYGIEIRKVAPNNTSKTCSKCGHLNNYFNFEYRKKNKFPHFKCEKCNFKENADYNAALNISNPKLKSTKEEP
The data set can be described thus: cryo-EM (3.9 A); SEC; 1 mM Mg2+; no target DNA; Complex assembly in 25 mM Tris-HCl pH 7.6, 150 mM NaCl, 2 mM DTT, 1 mM MgCl2, 37 C 30 min; SEC in same buffer. As to conditions: protein: recombinant; tags: N-terminal 10xHis-MBP removed by TEV; chain copies: 2; four stem-loops, two AR:R duplexes; 1 copy per Cas12f dimer.

B1: Un1Cas12f1 D510A (inactive Cas12f mutant used for the Cas12f-sgRNA-target DNA ternary complex) (enzyme, UniProt A0A482D308 1-529, looked up)
chain: MAKNTITKTLKLRIVRPYNSAEVEKIVADEKNNREKIALEKNKDKVKEACSKHLKVAAYCTTQVERNACLFCKARKLDDKFYQKLRGQFPDAVFWQEISEIFRQLQKQAAEIYNQSLIELYYEIFIKGKGIANASSVEHYLSDVCYTRAAELFKNAAIASGLRSKIKSNFRLKELKNMKSGLPTTKSDNFPIPLVKQKGGQYTGFEISNHNSDFIIKIPFGRWQVKKEIDKYRPWEKFDFEQVQKSPKPISLLLSTQRRKRNKGWSKDEGTEAEIKKVMNGDYQTSYIEVKRGSKIGEKSAWMLNLSIDVPKIDKGVDPSIIGGIDVGVKSPLVCAINNAFSRYSISDNDLFHFNKKMFARRRILLKKNRHKRAGHGAKNKLKPITILTEKSERFRKKLIERWACEIADFFIKNKVGTVQMENLESMKRKEDSYFNIRLRGFWPYAEMQNKIEFKLKQYGIEIRKVAPNNTSKTCSKCGHLNNYFNFEYRKKNKFPHFKCEKCNFKENAAYNAALNISNPKLKSTKEEP
notes: Cas12f (UnCas12f1 / Un1Cas12f1, also known as Cas14), full length, 529 amino acids, 61.5 kDa; plasmid Addgene #112500; catalytic D510 changed to alanine; three N-terminal and four C-terminal residues are not modelled; also called Cas12f D510A; Cas12f.2; source: E. coli BL21(DE3), purified (Ni-NTA, TEV cleavage, HiTrap SP, Superdex 200); not shown: 10xHis-MBP, N-terminal, cleaved
In the case of B1, in data set [1], the “stoichiometry N” value was 2.

B2: Cas12f (UnCas12f1), used for the Cas12f-sgRNA binary complex (enzyme, UniProt A0A482D308 1-529, looked up)
chain: MAKNTITKTLKLRIVRPYNSAEVEKIVADEKNNREKIALEKNKDKVKEACSKHLKVAAYCTTQVERNACLFCKARKLDDKFYQKLRGQFPDAVFWQEISEIFRQLQKQAAEIYNQSLIELYYEIFIKGKGIANASSVEHYLSDVCYTRAAELFKNAAIASGLRSKIKSNFRLKELKNMKSGLPTTKSDNFPIPLVKQKGGQYTGFEISNHNSDFIIKIPFGRWQVKKEIDKYRPWEKFDFEQVQKSPKPISLLLSTQRRKRNKGWSKDEGTEAEIKKVMNGDYQTSYIEVKRGSKIGEKSAWMLNLSIDVPKIDKGVDPSIIGGIDVGVKSPLVCAINNAFSRYSISDNDLFHFNKKMFARRRILLKKNRHKRAGHGAKNKLKPITILTEKSERFRKKLIERWACEIADFFIKNKVGTVQMENLESMKRKEDSYFNIRLRGFWPYAEMQNKIEFKLKQYGIEIRKVAPNNTSKTCSKCGHLNNYFNFEYRKKNKFPHFKCEKCNFKENADYNAALNISNPKLKSTKEEP
notes: Cas12f (UnCas12f1 / Un1Cas12f1, also known as Cas14), full length, 529 amino acids; plasmid Addgene #112500; The methods say only 'Cas12f proteins' for the binary complex, set against 'Cas12f D510A mutant proteins' for the ternary complex; also called Un1Cas12f1; wild-type Cas12f; source: E. coli BL21(DE3), purified (Ni-NTA, TEV cleavage, HiTrap SP, Superdex 200); not shown: 10xHis-MBP, …
As to B2, in data set [2], the binding result is “binds”.

B3: sgRNA + 60-bp target dsDNA (TTTA PAM) (mixed)
RNA: CUUCACUGAUAAAGUGGAGAACCGCUUCACCAAAAGCUGUCCCUUAGGGGAUUAGAACUUGAGUGAAGGUGGGCUGCUUGCAUCAGCCUAAUGUCGAGAAGUGCUUUCUUCGGAAAGUAACCCUCGAAACAAAUUCAUUUUUCCUCUCCAAUUCUGCACAAGAAAGUUGCAGAACCCGAAUAGACGAAUGAAGGAAUGCAACAGUUGACCCAACGUCGCCGG
DNA 1: GCTGATGCATCTAGATTGTGCACGCCGGCGACGTTGGGTCAACTTAAATACGTAAGGTGC
DNA 2: GCACCTTACGTATTTAAGTTGACCCAACGTCGCCGGCGTGCACAATCTAGATGCATCAGC
Consider B3, for which the binding result in data set [3] is recorded as “binds”.

B4: sgRNA (full length, 222 nt) (structured_RNA)
RNA: CUUCACUGAUAAAGUGGAGAACCGCUUCACCAAAAGCUGUCCCUUAGGGGAUUAGAACUUGAGUGAAGGUGGGCUGCUUGCAUCAGCCUAAUGUCGAGAAGUGCUUUCUUCGGAAAGUAACCCUCGAAACAAAUUCAUUUUUCCUCUCCAAUUCUGCACAAGAAAGUUGCAGAACCCGAAUAGACGAAUGAAGGAAUGCAACAGUUGACCCAACGUCGCCGG
For the molecule B4, the binding result with Un1Cas12f1 (Cas14a1) is on record as “binds”.

These data come from paper PMC8053092, “Structural basis for substrate recognition and cleavage by the dimerization-dependent CRISPR–Cas12f nuclease” (Nucleic Acids Research, 2020).
